Assay results taken from IntAct's records for PubMed 14625560.

B1: Cell cycle serine/threonine-protein kinase hsk1 (Schizosaccharomyces pombe (strain ATCC 38366 / 972)), P50582 (parent)
chain: MAEAHITLSPKVTHEQQTDIDSECEITEVDDENVNENKSQEMIQDIPARDREEIENITRTFVELQENYRLIEKIGEGTFSSVYKAEDLHYGRYINDWDIQSEVLKESSFGKEKIPVNEDSRKPKYVAIKKIYATSSPARIYNELEILYLLRGSSVIAPLITALRNEDQVLVVLPYYEHTDFRQYYSTFSYRDMSIYFRCLFQAMQQTQTLGIIHRDIKPSNFLFDVRTKHGVLVDFGLAERYDGRQQSHSCRCTNSNAAELAHDFSIAQETSLGYIKNDTRPSKRANRAGTRGFRAPEVLFKCSSQSPKVDIWSAGVILLSFLTKRFPMFNSKDDVDALMEIACIFGKSEMRQCAALHGCTFETNVSTLTEKRVNFRKLILWASCGSASIYKEKLRHKPSQEERLCLDFLEKCLELDCNKRISAEEALDHDFLYLDNLAYEKKDDDTAFDNSFGETSFEKDEDLTAKHLSHILDFKEQEETDEPTSLSKRKRSIDEILPNDALQDGA
partner: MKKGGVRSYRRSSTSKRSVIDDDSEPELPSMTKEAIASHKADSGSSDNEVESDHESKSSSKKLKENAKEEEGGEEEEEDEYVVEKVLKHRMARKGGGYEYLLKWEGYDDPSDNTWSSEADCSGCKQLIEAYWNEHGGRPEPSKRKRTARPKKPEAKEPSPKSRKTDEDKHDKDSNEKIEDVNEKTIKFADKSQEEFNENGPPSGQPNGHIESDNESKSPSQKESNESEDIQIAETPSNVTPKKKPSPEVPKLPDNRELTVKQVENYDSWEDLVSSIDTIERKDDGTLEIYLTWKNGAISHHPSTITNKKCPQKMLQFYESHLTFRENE

Variants of: B1
Conditions: with swi6_schpo swi6, P40381

effect of a mutation on the interaction | Variant
decreasing interaction | MAEAHITLSPKVTHEQQTDIDSECEITEVDDENVNENKSQEMIQDIPARDREEIENITRTFVELQENYRLIEKIGEGTFSSVYKAEDLHYGRYINDWDIQSEVLKESSFGKEKIPVNEDSRKPKYVAIKKIYATSSPARIYNELEILYLLRGSSVIAPLITALRNEDQVLVVLPYYEHTDFRQYYSTFSYRDMSIYFRCLFQAMQQTQTLGIIHRDIKPSNFLFDVRTKHGVLVDFGLAERYDGRQQSHSCRCTNSNAAELAHDFSIAQETSLGYIKNDTRPSKRANRAGTRGFRAPEVLFKCSSQSPKVDIWIAGVILLSFLTKRFPMFNSKDDVDALMEIACIFGKSEMRQCAALHGCTFETNVSTLTEKRVNFRKLILWASCGSASIYKEKLRHKPSQEERLCLDFLEKCLELDCNKRISAEEALDHDFLYLDNLAYEKKDDDTAFDNSFGETSFEKDEDLTAKHLSHILDFKEQEETDEPTSLSKRKRSIDEILPNDALQDGA [S314I]
